{"source": "patent US20100254992A1", "about": "(published 2010)", "binders": {"B1": {"name": "MOR03878 IgG1 (antibody, V domains shown)", "VH": "QVELVQSGAEVKKPGSSVKVSCKASGGTFSSYGISWVRQAPGQGLEWMGAINPLAGHTHYAQKFQGRVTITADESTSTAYMELSSLRSEDTAVYYCARYDGIYGELDFWGQGTLVTVSS", "VL": "not shown", "notes": "Human IgG1; also called MOR3878 IgG1; MOR3878k IgG"}, "B2": {"name": "MOR03850 IgG1 (antibody, V domains shown)", "VH": "B1 VH", "VL": "not shown", "notes": "Human IgG1; also called MOR3850 IgG1; MOR3850k IgG"}, "B3": {"name": "MOR03781 IgG1 (antibody, V domains shown)", "VH": "B1 VH with A50G, N52I, L54I, A55F, H57T, T58A, H59N", "VL": "not shown", "notes": "Human IgG1; also called MOR3781 IgG1; MOR3781k IgG"}, "B4": {"name": "MOR03899 IgG1 (antibody, V domains shown)", "VH": "B1 VH", "VL": "not shown", "notes": "Human IgG1; also called MOR3899 IgG1; MOR3899k IgG"}, "B5": {"name": "MOR03754 Fab (Fab, V domains shown)", "VH": "QVQLVESGGGLVQPGGSLRLSCAASGFTFRSYGMSWVRQAPGKGLEWVSSIEHKWSGYATTYAASVKGRFTISRDNSKNTLYLQMNSLRAEDTAVYYCARFEFTPWTYFDFWGQGTLVTVSS", "VL": "DIELTQPPSVSVAPGQTARISCSGDNLGKKYVYWYQQKPGQAPVLVIYDDDNRPSGIPERFSGSNSGNTATLTISGTQAEDEADYYCQSYTAQSSASFGGGTKLTVL"}, "B6": {"name": "MOR03878 Fab (Fab, V domains shown)", "VH": "B1 VH", "VL": "not shown", "notes": "MOR03471 cross-clone (3822 × 3794); Fab with C-terminal FLAG and 6x His tags; also called MOR3878; MOR3878k"}, "B7": {"name": "MOR03850 Fab (Fab, V domains shown)", "VH": "B1 VH", "VL": "not shown", "notes": "MOR03471 cross-clone (3822 × 3819); Fab with C-terminal FLAG and 6x His tags; also called MOR3850; MOR3850k"}, "B8": {"name": "MOR03899 Fab (Fab, V domains shown)", "VH": "B1 VH", "VL": "not shown", "notes": "MOR03471 cross-clone (3822 × 3876); Fab with C-terminal FLAG and 6x His tags; also called MOR3899; MOR3899k"}, "B9": {"name": "MOR03781 Fab (Fab, V domains shown)", "VH": "B1 VH with A50G, N52I, L54I, A55F, H57T, T58A, H59N", "VL": "not shown", "notes": "MOR03471 derivative (L-CDR3); Fab with C-terminal FLAG and 6x His tags; also called MOR3781; MOR3781k"}, "B10": {"name": "CNTO 888 (antibody, V domains shown)", "VH": "B1 VH with E3Q, A50G, N52I, L54I, A55F, H57T, T58A, H59N", "VL": "not shown", "notes": "Fully human IgG1 kappa"}, "B11": {"name": "MOR03849 IgG (antibody, V domains shown)", "VH": "B1 VH", "VL": "not shown"}, "B12": {"name": "MOR03885 IgG (antibody, V domains shown)", "VH": "B1 VH", "VL": "not shown"}}, "note": "Changes are numbered by the printed parent chain."}
{"molecular_target": "T1, Human Monocyte Chemoattractant Protein-1 (MCP-1) (human, UniProt P13500 24-99, 125I label on the radioligand form; letters are the unlabelled wild-type protein)", "T1 construct": "also called CCL-2; CCL2", "T1 sequence (P13500 24-99 limits assumed)": "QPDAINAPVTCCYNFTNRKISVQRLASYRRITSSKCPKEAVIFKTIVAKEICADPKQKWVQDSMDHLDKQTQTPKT", "experiment": "BioVeris solution equilibrium titration, IgG1, rh MCP-1", "experimental": "(§1) Affinity determination in solution was basically performed as described in the literature (Friguet et al., 1985). In order to improve the sensitivity and accuracy of the SET method, it was transferred from classical ELISA to ECL based BioVeris technology (Haenel et al., 2005, accepted for publication in Analytical Biochemistry). 1 mg/ml goat-anti-human (Fab)₂ or goat-anti-mouse IgG, Fc fragment specific antibodies (Jackson Immuno Research) were labelled with BV-tag™ NHS-Ester (Bioveris Europe, Witney, Oxfordshire, UK) according to manufacturer's instructions. The experiments were carried out in polypropylene microtiter plates and PBS pH 7.4 with 0.5% BSA and 0.02% Tween 20 as assay buffer. Unlabeled antigen was diluted in 4ⁿ series: For human and cyno MCP-1 a concentration range of 10 pM to 40 nM and for cross-reactivity controls (Eotaxin and MCP-2) a concentration range of 40 pM to 160 nM was chosen. Wells without antigen were used to determine Smax values. After addition of 100 pM Fab or IgG (final concentration in 75 μL final volume), the mixture was incubated for 2 hours at RT. Subsequently a mixture of 25 μl Dynabeads (0.4 mg/ml M-280 Streptavidin, DYNAL, Hamburg), coated with 0.25 μg/ml biotinylated MCP-1 (K69) and BV-tag labeled detection antibody in a final dilution of 1:4000 for anti-human Fab or 1:2000 for anti-mouse IgG were added per well.\n(§2) Solution Equilibrium Titration Using BioVeris. As an alternative method for sensitive KD determinations, the solution equilibrium titration (SET) using BioVeris technology was performed. Monovalent dissociation constants were calculated by means of appropriate fit models for Fab and IgG. This method was suitable for affinity measurement and cross-reactivity studies. All selected 16 binders were analyzed by solution equilibrium titration (SET) using BioVeris (Table 5 and Table 6) and these affinity values were regarded as the final affinity values.", "units": {"Kd": "nM"}}
{"binder": "B1", "Kd": 0.27}
{"binder": "B2", "Kd": 0.011}
{"binder": "B3", "Kd": 0.02}
{"binder": "B4", "Kd": 0.34}
{"molecular_target": "T2, cynomolgus monkey MCP-1 (cynomolgus monkey, UniProt P61274 24-99)", "T2 construct": "also called cyno MCP-1; cyno CCL-2", "T2 sequence (P61274 24-99 limits assumed)": "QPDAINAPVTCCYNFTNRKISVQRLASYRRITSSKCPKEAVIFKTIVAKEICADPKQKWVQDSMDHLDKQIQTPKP", "experiment": "BioVeris solution equilibrium titration, IgG1, cyno MCP-1", "experimental": "as §1, §2", "units": {"Kd": "nM"}}
{"binder": "B1", "Kd": 0.23}
{"binder": "B2", "Kd": 0.021}
{"binder": "B3", "Kd": 0.016}
{"binder": "B4", "Kd": 0.36}
{"molecular_target": "T3, human MCP-2 (human, UniProt P80075 24-99)", "T3 construct": "also called CCL8", "T3 sequence (looked up)": "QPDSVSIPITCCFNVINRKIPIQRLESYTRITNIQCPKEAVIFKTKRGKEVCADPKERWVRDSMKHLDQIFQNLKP", "experiment": "125I-MCP-2 binding to CCR2 on Thp-1 cells, radioligand competition", "units": {"IC50": "nM"}}
{"binder": "B5", "IC50": "≥ 2000"}
{"molecular_target": "T2, cynomolgus monkey MCP-1", "experiment": "BioVeris solution equilibrium titration, Fab, cyno MCP-1", "experimental": "as §1, §2", "units": {"Kd": "nM"}}
{"binder": "B6", "Kd": 0.32}
{"binder": "B7", "Kd": 0.04}
{"binder": "B8", "Kd": 0.49}
{"molecular_target": "T1, Human Monocyte Chemoattractant …", "experiment": "IGEN (BioVeris), MCP-1 Kd", "experimental": "as §1, §2", "units": {"Kd": "nM"}}
{"binder": "B6", "Kd": 0.32}
{"binder": "B7", "Kd": 0.04}
{"binder": "B1", "Kd": 0.27}
{"binder": "B9", "Kd": 0.03}
{"binder": "B2", "Kd": 0.01}
{"binder": "B3", "Kd": 0.02}
{"binder": "B8", "Kd": 0.81}
{"binder": "B4", "Kd": 0.34}
{"molecular_target": "T2, cynomolgus monkey MCP-1", "experiment": "BioVeris, Cyno MCP-1 Kd", "experimental": "as §1, §2", "units": {"Kd": "nM"}}
{"binder": "B6", "Kd": 0.32}
{"binder": "B7", "Kd": 0.04}
{"binder": "B1", "Kd": 0.23}
{"binder": "B9", "Kd": 0.01}
{"binder": "B2", "Kd": 0.01}
{"binder": "B3", "Kd": 0.02}
{"binder": "B8", "Kd": 0.49}
{"binder": "B4", "Kd": 0.36}
{"molecular_target": "T4, human Eotaxin 2 (human, UniProt O00175 27-104, limits assumed)", "T4 sequence (looked up)": "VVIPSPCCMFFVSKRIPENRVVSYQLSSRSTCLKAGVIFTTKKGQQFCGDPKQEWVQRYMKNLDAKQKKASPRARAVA", "experiment": "BIAcore"}
{"binder": "B10", "binding result": "no binding"}
{"molecular_target": "T5, human Eotaxin 3 (human, UniProt Q9Y258 24-94)", "T5 sequence (looked up)": "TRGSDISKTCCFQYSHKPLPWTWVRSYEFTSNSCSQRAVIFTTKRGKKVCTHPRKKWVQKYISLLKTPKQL", "experiment": "BIAcore"}
{"binder": "B10", "binding result": "no binding"}
{"molecular_target": "T6, human MCP-4 (human, UniProt Q99616 24-98, limits assumed)", "T6 construct": "also called CCL13", "T6 sequence (Q99616 24-98 limits assumed)": "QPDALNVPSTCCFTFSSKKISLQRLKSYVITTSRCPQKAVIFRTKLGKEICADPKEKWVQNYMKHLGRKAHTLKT", "experiment": "BIAcore"}
{"binder": "B10", "binding result": "no binding"}
{"molecular_target": "T7, human Eotaxin 1 (human, UniProt P51671 24-97)", "T7 sequence (P51671 24-97 limits assumed)": "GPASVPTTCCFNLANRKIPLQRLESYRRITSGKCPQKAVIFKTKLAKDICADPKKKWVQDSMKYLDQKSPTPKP", "experiment": "BIAcore"}
{"binder": "B10", "binding result": "no binding"}
{"molecular_target": "T8, human MCP-3 (human, UniProt P80098 24-99)", "T8 construct": "also called CCL7", "T8 sequence (P80098 24-99 limits assumed)": "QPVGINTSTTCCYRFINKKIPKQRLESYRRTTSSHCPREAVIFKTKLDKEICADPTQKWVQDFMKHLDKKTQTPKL", "experiment": "BIAcore"}
{"binder": "B10", "binding result": "no binding"}
{"molecular_target": "T1, Human Monocyte Chemoattractant …", "experiment": "125I-MCP-1 binding to CCR2 on THP-1 cells, radioligand competition", "units": {"IC50": "nM"}}
{"binder": "B6", "IC50": 0.11}
{"binder": "B7", "IC50": 0.16}
{"binder": "B1", "IC50": 0.03}
{"binder": "B9", "IC50": 0.18}
{"binder": "B2", "IC50": 0.05}
{"binder": "B3", "IC50": 0.02}
{"binder": "B8", "IC50": 0.13}
{"binder": "B4", "IC50": 0.05}
{"molecular_target": "T1, Human Monocyte Chemoattractant …", "experiment": "BioVeris solution equilibrium titration, Fab, rh MCP-1", "experimental": "as §1, §2", "units": {"Kd": "nM"}}
{"binder": "B6", "Kd": 0.32}
{"binder": "B7", "Kd": 0.04}
{"binder": "B9", "Kd": 0.03}
{"binder": "B8", "Kd": 0.81}
{"molecular_target": "T1, Human Monocyte Chemoattractant …", "experiment": "cell-based or functional assay", "units": {"Inhibition of Ca2+ Mobilization IC50": "nM"}}
{"binder": "B6", "Inhibition of Ca2+ Mobilization IC50": 20.2}
{"binder": "B7", "Inhibition of Ca2+ Mobilization IC50": 28.4}
{"binder": "B1", "Inhibition of Ca2+ Mobilization IC50": 6.7}
{"binder": "B9", "Inhibition of Ca2+ Mobilization IC50": 21.8}
{"binder": "B2", "Inhibition of Ca2+ Mobilization IC50": 9.47}
{"binder": "B3", "Inhibition of Ca2+ Mobilization IC50": 10.9}
{"binder": "B8", "Inhibition of Ca2+ Mobilization IC50": 17.5}
{"binder": "B4", "Inhibition of Ca2+ Mobilization IC50": 5.85}
{"molecular_target": "T3, human MCP-2", "experiment": "Biacore, IgG capture mode"}
{"binder": "B11", "binding result": "no binding (tested: 100 nM)"}
{"binder": "B12", "binding result": "no binding (tested: 100 nM)"}
{"molecular_target": "T4, human Eotaxin 2", "experiment": "Biacore, IgG capture mode"}
{"binder": "B11", "binding result": "no binding (tested: 100 nM)"}
{"binder": "B12", "binding result": "no binding (tested: 100 nM)"}
{"binder": "B1", "binding result": "no binding (tested: 100 nM)"}
{"binder": "B2", "binding result": "no binding (tested: 100 nM)"}
{"binder": "B3", "binding result": "no binding (tested: 100 nM)"}
{"binder": "B4", "binding result": "no binding (tested: 100 nM)"}
{"molecular_target": "T5, human Eotaxin 3", "experiment": "Biacore, IgG capture mode"}
{"binder": "B11", "binding result": "no binding (tested: 100 nM)"}
{"binder": "B12", "binding result": "no binding (tested: 100 nM)"}
{"binder": "B1", "binding result": "no binding (tested: 100 nM)"}
{"binder": "B2", "binding result": "no binding (tested: 100 nM)"}
{"binder": "B3", "binding result": "no binding (tested: 100 nM)"}
{"binder": "B4", "binding result": "no binding (tested: 100 nM)"}
{"molecular_target": "T6, human MCP-4", "experiment": "Biacore, IgG capture mode"}
{"binder": "B11", "binding result": "no binding (tested: 100 nM)"}
{"binder": "B12", "binding result": "no binding (tested: 100 nM)"}
{"binder": "B1", "binding result": "no binding (tested: 100 nM)"}
{"binder": "B2", "binding result": "no binding (tested: 100 nM)"}
{"binder": "B3", "binding result": "no binding (tested: 100 nM)"}
{"binder": "B4", "binding result": "no binding (tested: 100 nM)"}
{"molecular_target": "T7, human Eotaxin 1", "experiment": "Biacore, IgG capture mode"}
{"binder": "B11", "binding result": "no binding (tested: 100 nM)"}
{"binder": "B12", "binding result": "no binding (tested: 100 nM)"}
{"binder": "B3", "binding result": "no binding (tested: 100 nM)"}
{"molecular_target": "T8, human MCP-3", "experiment": "Biacore, IgG capture mode"}
{"binder": "B11", "binding result": "no binding (tested: 100 nM)"}
{"binder": "B12", "binding result": "no binding (tested: 100 nM)"}
{"binder": "B1", "binding result": "no binding (tested: 100 nM)"}
{"binder": "B2", "binding result": "no binding (tested: 100 nM)"}
{"binder": "B3", "binding result": "no binding (tested: 100 nM)"}
{"binder": "B4", "binding result": "no binding (tested: 100 nM)"}
